Reference: article PMC8882101

Assays:
[1] = biological target: Cry1Ia38 protoxin (Bacillus thuringiensis (strain IE-1)); test: SEC; Superdex-200 10/300 GL, carbonate buffer (50 mM Na2CO3, 100 mM NaCl) pH 10.5; oligomeric state from the molecular weight of the eluted peaks against standards
[2] = biological target: Cry1Ia38 protoxin (Bacillus thuringiensis (strain IE-1)); test: SDS-PAGE of samples heated at 50 °C, Western blot; 5 µg Cry1Ia protein incubated with 2 µg O. nubilalis BBMV in 50 µl carbonate buffer pH 10.5 at 37 °C (5-30 min); BBMV pellet heated at 50 °C for 3 min, 10% SDS-PAGE, polyclonal anti-Cry1Ia
[3] = biological target: Cry1Ia38 protoxin (Bacillus thuringiensis (strain IE-1)); test: SDS-PAGE of samples heated at 50 °C, Western blot; control without BBMV: Cry1Ia protein incubated in carbonate buffer pH 10.5 at 37 °C, sample heated at 50 °C for 3 min, 10% SDS-PAGE, polyclonal anti-Cry1Ia
[4] = biological target: fully MJ activated Cry1Ia toxin (Bacillus thuringiensis (strain IE-1)); test: SEC; Superdex-200 10/300 GL, carbonate buffer (50 mM Na2CO3, 100 mM NaCl) pH 10.5; oligomeric state from the molecular weight of the eluted peaks against standards
[5] = biological target: fully trypsin activated Cry1Ia toxin (Bacillus thuringiensis (strain IE-1)); test: as above
[6] = biological target: partially processed Cry1Ia protoxin (~67 kDa intermediate fragment) (Bacillus thuringiensis (strain IE-1)); test: SDS-PAGE of samples heated at 50 °C, Western blot; 5 µg Cry1Ia protein incubated with 2 µg O. nubilalis BBMV in 50 µl carbonate buffer pH 10.5 at 37 °C (5-30 min); BBMV pellet heated at 50 °C for 3 min, 10% SDS-PAGE, polyclonal anti-Cry1Ia

Cry1Ia38 protoxin (natural protein)
stoichiometry N [1]: 2
stoichiometry N [2]: 2
stoichiometry N [3]: 2

fully MJ activated Cry1Ia toxin (domain or fragment)
stoichiometry N [4]: 2

fully trypsin activated Cry1Ia toxin (domain or fragment)
stoichiometry N [5]: 2

partially processed Cry1Ia protoxin (~67 kDa intermediate fragment) (domain or fragment)
stoichiometry N [6]: 2
